Measured values reported in IntAct's records for PubMed 31515488.

B1: Kinetochore protein NDC80 homolog (Homo sapiens), O14777 (parent)
chain: MKRSSVSSGGAGRLSMQELRSQDVNKQGLYTPQTKEKPTFGKLSINKPTSERKVSLFGKRTSGHGSRNSQLGIFSSSEKIKDPRPLNDKAFIQQCIRQLCEFLTENGYAHNVSMKSLQAPSVKDFLKIFTFLYGFLCPSYELPDTKFEEEVPRIFKDLGYPFALSKSSMYTVGAPHTWPHIVAALVWLIDCIKIHTAMKESSPLFDDGQPWGEETEDGIMHNKLFLDYTIKCYESFMSGADSFDEMNAELQSKLKDLFNVDAFKLESLEAKNRALNEQIARLEQEREKEPNRLESLRKLKASLQGDVQKYQAYMSNLESHSAILDQKLNGLNEEIARVELECETIKQENTRLQNIIDNQKYSVADIERINHERNELQQTINKLTKDLEAEQQKLWNEELKYARGKEAIETQLAEYHKLARKLKLIPKGAENSKGYDFEIKFNPEAGANCLVKYRAQVYVPLKELLNETEEEINKALNKKMGLEDTLEQLNAMITESKRSVRTLKEEVQKLDDLYQQKIKEAEEEDEKCASELESLEKHKHLLESTVNQGLSEAMNELDAVQREYQLVVQTTTEERRKVGNNLQRLLEMVATHVGSVEKHLEEQIAKVDREYEECMSEDLSENIKEIRDKYEKKATLIKSSEE
partner: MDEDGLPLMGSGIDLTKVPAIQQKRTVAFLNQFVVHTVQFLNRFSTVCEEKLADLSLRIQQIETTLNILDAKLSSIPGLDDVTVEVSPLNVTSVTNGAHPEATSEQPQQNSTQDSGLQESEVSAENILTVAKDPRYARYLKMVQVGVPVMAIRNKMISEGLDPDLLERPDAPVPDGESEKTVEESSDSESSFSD
B2: Centrosomal protein of 55 kDa (Homo sapiens), Q53EZ4 (parent)
chain: MSSRSTKDLIKSKWGSKPSNSKSETTLEKLKGEIAHLKTSVDEITSGKGKLTDKERHRLLEKIRVLEAEKEKNAYQLTEKDKEIQRLRDQLKARYSTTTLLEQLEETTREGERREQVLKALSEEKDVLKQQLSAATSRIAELESKTNTLRLSQTVAPNCFNSSINNIHEMEIQLKDALEKNQQWLVYDQQREVYVKGLLAKIFELEKKTETAAHSLPQQTKKPESEGYLQEEKQKCYNDLLASAKKDLEVERQTITQLSFELSEFRRKYEETQKEVHNLNQLLYSQRRADVQHLEDDRHKTEKIQKLREENDIARGKLEEEKKRSEELLSQVQFLYTSLLKQQEEQTRVALLEQQMQACTLDFENEKLDRQHVQHQLHVILKELRKARNQITQLESLKQLHEFAITEPLVTFQGETENREKVAASPKSPTAALNESLVECPKCNIQYPATEHRDLLVHVEYCSK
partner: B1 partner
B3: Cysteine-rich C-terminal protein 1 (Homo sapiens), Q9UGL9 (parent)
chain: MSSQQSAVSAKGFSKGSSQGPAPCPAPAPTPAPASSSSCCGSGRGCCGDSGCCGSSSTSCCCFPRRRRRQRSSGCCCCGGGSQRSQRSNNRSSGCCSGC
B4: Retinoic acid receptor RXR-gamma (Homo sapiens), P48443 (parent)
chain: MYGNYSHFMKFPAGYGGSPGHTGSTSMSPSAALSTGKPMDSHPSYTDTPVSAPRTLSAVGTPLNALGSPYRVITSAMGPPSGALAAPPGINLVAPPSSQLNVVNSVSSSEDIKPLPGLPGIGNMNYPSTSPGSLVKHICAICGDRSSGKHYGVYSCEGCKGFFKRTIRKDLIYTCRDNKDCLIDKRQRNRCQYCRYQKCLVMGMKREAVQEERQRSRERAESEAECATSGHEDMPVERILEAELAVEPKTESYGDMNMENSTNDPVTNICHAADKQLFTLVEWAKRIPHFSDLTLEDQVILLRAGWNELLIASFSHRSVSVQDGILLATGLHVHRSSAHSAGVGSIFDRVLTELVSKMKDMQMDKSELGCLRAIVLFNPDAKGLSNPSEVETLREKVYATLEAYTKQKYPEQPGRFAKLLLRLPALRSIGLKCLEHLFFFKLIGDTPIDTFLMEMLETPLQIT
partner: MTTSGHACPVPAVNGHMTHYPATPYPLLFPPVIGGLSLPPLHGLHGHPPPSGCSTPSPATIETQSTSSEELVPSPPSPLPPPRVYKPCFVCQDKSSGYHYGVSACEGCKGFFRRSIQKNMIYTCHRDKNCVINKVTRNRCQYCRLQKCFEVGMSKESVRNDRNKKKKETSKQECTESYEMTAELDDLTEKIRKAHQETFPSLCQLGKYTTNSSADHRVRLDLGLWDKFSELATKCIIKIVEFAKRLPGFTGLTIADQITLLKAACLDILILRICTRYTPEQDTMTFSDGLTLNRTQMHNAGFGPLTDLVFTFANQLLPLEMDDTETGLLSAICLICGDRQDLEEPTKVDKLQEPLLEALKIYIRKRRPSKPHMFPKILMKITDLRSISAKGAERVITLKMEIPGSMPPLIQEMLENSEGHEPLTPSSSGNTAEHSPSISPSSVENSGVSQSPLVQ
B5: NF-kappa-B inhibitor delta (Homo sapiens), Q8NI38 (parent)
chain: MEAGPWRVSAPPSGPPQFPAVVPGPSLEVARAHMLALGPQQLLAQDEEGDTLLHLFAARGLRWAAYAAAEVLQVYRRLDIREHKGKTPLLVAAAANQPLIVEDLLNLGAEPNAADHQGRSVLHVAATYGLPGVLLAVLNSGVQVDLEARDFEGLTPLHTAILALNVAMRPSDLCPRVLSTQARDRLDCVHMLLQMGANHTSQEIKSNKTVLHLAVQAANPTLVQLLLELPRGDLRTFVNMKAHGNTALHMAAALPPGPAQEAIVRHLLAAGADPTLRNLENEQPVHLLRPGPGPEGLRQLLKRSRVAPPGLSS
B6: Transmembrane 4 L6 family member 4 (Homo sapiens), P48230 (parent)
chain: MCTGGCARCLGGTLIPLAFFGFLANILLFFPGGKVIDDNDHLSQEIWFFGGILGSGVLMIFPALVFLGLKNNDCCGCCGNEGCGKRFAMFTSTIFAVVGFLGAGYSFIISAISINKGPKCLMANSTWGYPFHDGDYLNDEALWNKCREPLNVVPWNLTLFSILLVVGGIQMVLCAIQVVNGLLGTLCGDCQCCGCCGGDGPV
partner: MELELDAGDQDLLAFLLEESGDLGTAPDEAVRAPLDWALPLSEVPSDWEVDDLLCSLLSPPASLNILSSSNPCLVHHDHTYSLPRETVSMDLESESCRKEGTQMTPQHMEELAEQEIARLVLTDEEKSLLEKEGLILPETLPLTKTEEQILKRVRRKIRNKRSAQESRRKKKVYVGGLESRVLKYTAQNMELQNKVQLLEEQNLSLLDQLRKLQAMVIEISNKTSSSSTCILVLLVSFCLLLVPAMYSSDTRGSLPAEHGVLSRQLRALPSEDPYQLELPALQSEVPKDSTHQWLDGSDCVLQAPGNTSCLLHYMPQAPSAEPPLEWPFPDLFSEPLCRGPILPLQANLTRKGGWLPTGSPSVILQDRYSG
B7: C-type lectin domain family 1 member A (Homo sapiens), Q8NC01 (parent)
chain: MQAKYSSTRDMLDDDGDTTMSLHSQGSATTRHPEPRRTEHRAPSSTWRPVALTLLTLCLVLLIGLAALGLLFFQYYQLSNTGQDTISQMEERLGNTSQELQSLQVQNIKLAGSLQHVAEKLCRELYNKAGAHRCSPCTEQWKWHGDNCYQFYKDSKSWEDCKYFCLSENSTMLKINKQEDLEFAASQSYSEFFYSYWTGLLRPDSGKAWLWMDGTPFTSELFHIIIDVTSPRSRDCVAILNGMIFSKDCKELKRCVCERRAGMVKPESLHVPPETLGEGD
partner: B6 partner
B8: Phosphoserine phosphatase (Homo sapiens), P78330 (parent)
chain: MVSHSELRKLFYSADAVCFDVDSTVIREEGIDELAKICGVEDAVSEMTRRAMGGAVPFKAALTERLALIQPSREQVQRLIAEQPPHLTPGIRELVSRLQERNVQVFLISGGFRSIVEHVASKLNIPATNVFANRLKFYFNGEYAGFDETQPTAESGGKGKVIKLLKEKFHFKKIIMIGDGATDMEACPPADAFIGFGGNVIRQQVKDNAKWYITDFVELLGELEE
partner: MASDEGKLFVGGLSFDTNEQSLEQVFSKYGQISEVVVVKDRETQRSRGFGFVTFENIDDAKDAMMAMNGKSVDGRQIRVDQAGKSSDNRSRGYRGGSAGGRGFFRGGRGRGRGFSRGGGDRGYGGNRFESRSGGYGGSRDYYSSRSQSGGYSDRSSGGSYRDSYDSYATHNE
B9: Keratin, type I cuticular Ha8 (Homo sapiens), O76015 (parent)
chain: MTSSYSSSSCPLGCTMAPGARNVSVSPIDIGCQPGAEANIAPMCLLANVAHANRVRVGSTPLGRPSLCLPPTCHTACPLPGTCHIPGNIGICGAYGENTLNGHEKETMQFLNDRLANYLEKVRQLEQENAELEATLLERSKCHESTVCPDYQSYFHTIEELQQKILCSKAENARLIVQIDNAKLAADDFRIKLESERSLRQLVEADKCGTQKLLDDATLAKADLEAQQESLKEEQLSLKSNHEQEVKILRSQLGEKLRIELDIEPTIDLNRVLGEMRAQYEAMLETNRQDVEQWFQAQSEGISLQDMSCSEELQCCQSEILELRCTVNALEVERQAQHTLKDCLQNSLCEAEDRFGTELAQMQSLISNVEEQLSEIRADLERQNQEYQVLLDVKTRLENEIATYRNLLESEDCKLPCNPCSTSPSCVTAPCAPRPSCGPCTTCGPTCGASTTGSRF
partner: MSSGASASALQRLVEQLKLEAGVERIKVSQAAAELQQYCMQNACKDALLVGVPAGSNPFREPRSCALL

Variants of: B1
Conditions: with wasc3_human WASHC3, Q9Y3C0

effect of a mutation on the interaction	Variant
with no effect	S55P

Variants of: B2
Conditions: with wasc3_human WASHC3, Q9Y3C0

effect of a mutation on the interaction	Variant
with no effect	L59F

Variants of: B3
Conditions: with nt2na_human NOTCH2NLA

effect of a mutation on the interaction	Variant
with no effect	G20S

Variants of: B4
Conditions: with rarb_human RARB

effect of a mutation on the interaction	Variant
with no effect	A86V

Variants of: B5
Conditions: with ssxt_human SS18, Q15532
Chain of ssxt_human SS18, Q15532 (Q15532 whole entry): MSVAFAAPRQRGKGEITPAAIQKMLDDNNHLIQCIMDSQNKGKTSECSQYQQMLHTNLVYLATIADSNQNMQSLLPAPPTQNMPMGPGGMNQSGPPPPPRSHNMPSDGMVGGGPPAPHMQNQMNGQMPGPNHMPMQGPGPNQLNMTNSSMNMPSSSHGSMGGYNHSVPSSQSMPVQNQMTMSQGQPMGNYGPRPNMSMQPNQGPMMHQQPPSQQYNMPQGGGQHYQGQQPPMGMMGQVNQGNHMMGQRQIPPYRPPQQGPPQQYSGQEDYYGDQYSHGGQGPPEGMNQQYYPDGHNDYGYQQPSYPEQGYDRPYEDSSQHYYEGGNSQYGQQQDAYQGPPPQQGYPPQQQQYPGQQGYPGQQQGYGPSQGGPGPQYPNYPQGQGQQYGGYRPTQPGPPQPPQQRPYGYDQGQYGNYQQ

effect of a mutation on the interaction	Variant
with no effect	V29A

Variants of: B6
Conditions: with creb3_human CREB3, O43889

effect of a mutation on the interaction	Variant
with no effect	A63V

Variants of: B7
Conditions: with creb3_human CREB3, O43889

effect of a mutation on the interaction	Variant
with no effect	P272S
with no effect	G26A

Variants of: B8
Conditions: with cirbp_human CIRBP

effect of a mutation on the interaction	Variant
with no effect	T152I
with no effect	T149M

Variants of: B9
Conditions: with gbg10_human GNG10, P50151

effect of a mutation on the interaction	Variant
with no effect	A205S
